Stoichiometry N and stoichiometry N (ratio CspA:CspC-CPD-His6) data for 3 substances are collected here from publication PMC12880746.

Experiment [1] has as its target CspA-His6 (Clostridioides difficile). The experiment is described as follows: SEC; individually Ni-affinity-purified Csp-His6 proteins on Superdex 200 Increase 10/300 GL; 200 mM NaCl, 10 mM Tris-HCl pH 7.5, 5% glycerol, 1 mM dithiothreitol; apparent MW from gel filtration standard. (In general: SEC sorts molecules by how far they enter the pores of the column.)
In experiment [2] the target is CspB-His6 (Clostridioides difficile). Described as above.
The target in experiment [3] is CspC-CPD-His6 (Clostridioides difficile). The experiment is described as follows: SEC; elution fraction of a CspC-CPD-His6:CspA co-affinity purification (proteins co-expressed in E. coli) on Superdex 200 Increase 10/300 GL; 200 mM NaCl, 10 mM Tris-HCl pH 7.5, 5% glycerol, 1 mM dithiothreitol; fractions on SDS-PAGE; complex peak re-run on SEC; also run with TA and CaCl2 without difference.

As usually defined, the stoichiometry N is a count of units in the complex or per binding partner. With CspA-His6 (domain or fragment), in experiment [1], the stoichiometry N came to 2.
As for CspB-His6 (domain or fragment), the stoichiometry N in experiment [2] is 2.
In the case of “untagged CspA (CspA_(583-1132)) (domain or fragment)”, the stoichiometry N (ratio CspA:CspC-CPD-His6) in experiment [3] turned out to be 1.
